The text below walks through data of patent US20240376185A1.

In one test the target is guinea pig IgG. Kind of test: ELISA, coated antigen, E. coli supernatant.
The target of a further test is dog IgG Fab fragment. Kind of test: ELISA, coated antigen, E. coli supernatant. A general note: ELISA stands for enzyme-linked immunosorbent assay.
A further test has as its target bovine IgG. The test is described as follows: ELISA, coated antigen, E. coli supernatant.
Another test has as its target human IgG. The test is described as follows: ELISA, coated antigen, E. coli supernatant.
In the next test the target is dog IgG. Kind of test: ELISA, coated antigen, E. coli supernatant.
In another test the target is swine IgG. Kind of test: ELISA, coated antigen, E. coli supernatant.
The next test deals with horse IgG Fab fragment. Kind of test: ELISA, coated antigen, E. coli supernatant.
The target of a further test is horse IgG Fc fragment. The test is described as follows: ELISA, coated antigen, E. coli supernatant.
A further test concerns the target horse IgG. The test is described as follows: ELISA, coated antigen, E. coli supernatant (no SDA 0.255, 0.261).
The target in another test is dog serum albumin (dog) (UniProt P49822). The test is described as follows: ELISA, coated albumin, E. coli supernatant.
Test [1] has as its target human serum albumin (human) (UniProt P02768). The test is described as follows: ELISA, coated albumin, E. coli supernatant.
Test [2] has as its target horse serum albumin (horse) (UniProt P35747). Kind of test: ELISA, coated albumin, E. coli supernatant.

Chain of dog serum albumin (dog) (P49822 25-608): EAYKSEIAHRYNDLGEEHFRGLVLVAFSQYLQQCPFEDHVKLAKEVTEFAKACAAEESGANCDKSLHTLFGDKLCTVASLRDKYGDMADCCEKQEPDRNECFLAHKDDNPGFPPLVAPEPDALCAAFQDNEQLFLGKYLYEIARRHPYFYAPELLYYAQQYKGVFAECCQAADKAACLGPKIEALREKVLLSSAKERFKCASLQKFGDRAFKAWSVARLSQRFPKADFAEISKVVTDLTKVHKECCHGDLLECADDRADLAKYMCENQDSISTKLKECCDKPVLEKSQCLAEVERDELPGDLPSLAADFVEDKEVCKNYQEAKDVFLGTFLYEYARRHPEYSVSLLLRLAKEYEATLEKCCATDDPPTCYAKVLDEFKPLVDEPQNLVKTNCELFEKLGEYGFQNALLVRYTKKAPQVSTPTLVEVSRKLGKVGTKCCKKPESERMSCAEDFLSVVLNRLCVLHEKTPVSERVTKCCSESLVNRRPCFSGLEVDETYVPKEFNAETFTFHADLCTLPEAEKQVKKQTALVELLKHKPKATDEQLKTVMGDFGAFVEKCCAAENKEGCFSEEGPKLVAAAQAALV
Chain of horse serum albumin (horse) (P35747 25-607): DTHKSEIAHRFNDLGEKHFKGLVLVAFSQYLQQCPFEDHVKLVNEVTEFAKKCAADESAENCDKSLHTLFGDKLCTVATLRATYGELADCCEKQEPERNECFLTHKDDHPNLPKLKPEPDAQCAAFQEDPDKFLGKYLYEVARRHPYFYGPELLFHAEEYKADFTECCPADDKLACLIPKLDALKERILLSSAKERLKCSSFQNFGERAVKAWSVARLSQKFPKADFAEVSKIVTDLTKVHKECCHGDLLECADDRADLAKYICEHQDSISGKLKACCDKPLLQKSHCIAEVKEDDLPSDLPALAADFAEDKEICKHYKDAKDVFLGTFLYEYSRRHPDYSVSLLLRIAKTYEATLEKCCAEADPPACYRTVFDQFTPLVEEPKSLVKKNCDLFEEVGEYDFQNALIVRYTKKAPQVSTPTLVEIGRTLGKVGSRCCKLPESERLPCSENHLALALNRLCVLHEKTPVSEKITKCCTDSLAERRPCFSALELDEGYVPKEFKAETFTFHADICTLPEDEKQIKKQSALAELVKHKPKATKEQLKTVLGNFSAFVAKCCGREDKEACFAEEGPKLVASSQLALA

B1: SVG24 (VHH, not shown: large carriers)
VHH: QVQLQQSGGGLVQAGGSLRLSCAASGRTFSTYNIAWFRQAPGKEREFVTAITWGSGNTYYADSVKGRFTISRDNAKNTVFLQMNSLKPDDTAVYYCAARRSLGPTMAFAYEYWGQGTQVTVSS
For the molecule B1, the absorbance at 450 nm in the test with guinea pig IgG stood at 0.068 A450; with dog IgG Fab fragment, 0.074 A450; with bovine IgG, 0.075 A450; with human IgG, 0.084 A450; in the test with dog IgG, 1.74 A450; with swine IgG, 0.341 A450. The absorbance at 450 nm with horse IgG Fab fragment is 0.06 A450; in the test with horse IgG Fc fragment, 1.67 A450; with horse IgG, 0.765 A450.

B2: SVG23 (VHH, not shown: large carriers)
VHH: QVQLQESGGGLVQAGGSLRLSCAASGRAFGSYTMNWFRQAPGKERDFVAGIMSSGMNTWYADSVKGRFTISRDNAKNTVYLQMNSLKPEDTAVYYCASRPRSTMTSGRYLYDYWGQGTQVTVSS
Regarding B2, the absorbance at 450 nm turned out to be 0.068 A450 in the test with guinea pig IgG; 0.061 A450 with dog IgG Fab fragment; 0.062 A450 with bovine IgG; 0.073 A450 with human IgG; 1.74 A450 with dog IgG; 0.092 A450 in the test with swine IgG. Also, the figures for the absorbance at 450 nm with horse IgG Fab fragment, in the test with horse IgG Fc fragment and in the test with horse IgG were 0.056 A450, 0.072 A450 and 0.26 A450, respectively.

B3: SVA12 (VHH)
VHH: QVQLQESGGRLVQAEDSLRLSCAASGRTFVSYDMGWFRQAPGKEREFVAAINWRGYTTDYVDSVKGRFFISRDIAKSTVYLQMNNLKPEDTAVYYCAARQMSGSSRYSPPGRVGYDFWGQGTQVTVSS
B3: the absorbance at 450 nm is 1.77 A450 with dog serum albumin (dog), 0.057 A450 in test [1] and 2 A450 in test [2].

B4: SVG19 (VHH, not shown: large carriers)
VHH: QVQLQQSGGGLVQPGGSLRLSCAASGFTFSSYAMSWVRQAPGKGLEWVSAINSGGGSTSYADSVKGRFTISRDNAKNTLYLQMNSLKPEDTAVYYCAKDFDPWGVGTGGYDYWGQGTQVTVSS
As to B4, the absorbance at 450 nm amounted to 0.435 A450 with guinea pig IgG; 1.22 A450 with dog IgG Fab fragment; 0.453 A450 in the test with bovine IgG; 0.309 A450 with human IgG; 1.02 A450 in the test with dog IgG; 0.146 A450 with swine IgG. The absorbance at 450 nm with horse IgG Fab fragment stood at 0.472 A450; with horse IgG Fc fragment, 0.079 A450; with horse IgG it was 0.681 A450.

B5: SVG06 (VHH)
VHH: QVQLQESGGALVQPGGSLRLSCAASGFPFSAYDMTWVRQAPGQGLEWVSTIHKSGGITTYADSVKGRFTISRDNAKNTLYLQMNNLESEDTAVYYCAKALRAHNSDYVGRNALGSWGEGTLVTVSS
For B5, the absorbance at 450 nm with guinea pig IgG came to 0.204 A450; in the test with dog IgG Fab fragment, 0.178 A450; in the test with bovine IgG it was 0.172 A450; with human IgG, 0.365 A450; with dog IgG it was 0.277 A450; with swine IgG it was 0.131 A450. The values for the absorbance at 450 nm with horse IgG Fab fragment, in the test with horse IgG Fc fragment and with horse IgG were 0.089 A450, 0.073 A450 and 0.325 A450, respectively.

B6: SVG18 (VHH, not shown: large carriers)
VHH: QVQLQQSGGGLVQPGGSLRLSCAASGFTFSSYAMSWVRQAPGKGLEWVSAINSGGDIISYADSVKGRFTISRDNAKNTLYLQMNSLKPEDTAVYYCAKSPIVRTYGGYDYWGQGTQVTVSS
Regarding B6, the absorbance at 450 nm turned out to be 0.174 A450 in the test with guinea pig IgG; 1.36 A450 in the test with dog IgG Fab fragment; 0.124 A450 with bovine IgG; 0.096 A450 in the test with human IgG; 1 A450 in the test with dog IgG; 0.097 A450 with swine IgG. Further, the absorbance at 450 nm in the test with horse IgG Fab fragment stood at 0.32 A450; with horse IgG Fc fragment, 0.072 A450; with horse IgG, 0.478 A450.

B7: SVG07 (VHH, not shown: large carriers)
VHH: QVQLQESGPGLVKPSQTLSLTCTVSGGSITTTAYAWSWIRQPPGKGLEWMGAIRFDGTTDYSPSLKSRISISRDTSNNQFSLRMSSVTPEDTAVYYCARYGVVSDHGGLDYWGQGTQVTVSS
In the case of B7, the absorbance at 450 nm with guinea pig IgG is 0.249 A450; in the test with dog IgG Fab fragment, 0.454 A450; with bovine IgG, 0.121 A450; with human IgG it was 0.17 A450; in the test with dog IgG it was 0.479 A450; with swine IgG, 0.103 A450. In addition, the values for the absorbance at 450 nm with horse IgG Fab fragment, in the test with horse IgG Fc fragment and with horse IgG were 0.152 A450, 0.099 A450 and 0.401 A450, respectively.

B8: SVG03 (VHH, not shown: large carriers)
VHH: QVQLQESGGGLVQAGGSLRLSCAASGRTFSNYVMGWFRQAPGKEREFVSAISWNGVSTFYADSVKGRFTISRDNAKNTVYLQMNSLKPEDTAVYYCAADERFVVRYNYWGQGTQVTVSS
For the molecule B8, the absorbance at 450 nm with guinea pig IgG was determined as 0.063 A450; with dog IgG Fab fragment it was 0.054 A450; with bovine IgG, 0.061 A450; with human IgG, 0.076 A450; with dog IgG it was 0.07 A450; with swine IgG, 0.075 A450. For the same molecule, the absorbance at 450 nm was found to be 0.057 A450 with horse IgG Fab fragment, 0.476 A450 with horse IgG Fc fragment and 1.1 A450 with horse IgG.

B9: SVG13 (VHH)
VHH: QVQLQESGGGLVQPGGSLRLSCEASGFTFDDYGMSWVRQAPGKGLEWVSSLTPNGGSTYYADSVKGRFTISRDNAKNTLYLQMNSLKPEDTALYYCAKNSYYGAMDYWGKGTLVTVSS
In the case of B9, the absorbance at 450 nm with guinea pig IgG was determined as 0.579 A450; with dog IgG Fab fragment, 0.59 A450; in the test with bovine IgG, 0.272 A450; with human IgG it was 0.524 A450; with dog IgG it was 0.693 A450; with swine IgG, 0.195 A450. Further, the absorbance at 450 nm in the test with horse IgG Fab fragment worked out at 0.222 A450; in the test with horse IgG Fc fragment, 0.097 A450; in the test with horse IgG it was 0.436 A450.

B10: SVA04 (VHH, not shown: large carriers)
VHH: QVQLQQSGGGLVQAGGSLRLACAASGRTLSSYVMGWFRQAPGKEREFVAAISWSGGSTYYADSVKGRFTISRDNAKNTVYLQMNSLKPEDTAVYYCAATLRGSNRYYSGRVYDYWGQGTQVTVSS
Take B10: in the test with dog serum albumin (dog), the absorbance at 450 nm is 1.53 A450.
